Test results from article PMC8190868.

Legend:
[1] = molecular target: A. fulgidus humanized ferritin (chimeric ferritin: Archaeoglobus fulgidus ferritin with a grafted surface loop of human H ferritin) (Archaeoglobus fulgidus); assay: SEC; HP-SEC of HumFt with divalent cations only (no PAMAM); dimers to 24-mer
[2] = molecular target: A. fulgidus humanized ferritin (chimeric ferritin: Archaeoglobus fulgidus ferritin with a grafted surface loop of human H ferritin) (Archaeoglobus fulgidus); assay: SEC; HP-SEC of the HumFt-PAMAM nanoparticle after up to 24 h at 37 °C in 20 mM HEPES with 50 mM MgCl2, in PBS, or in RPMI 1640 with 10% FCS
[3] = molecular target: A. fulgidus humanized ferritin (chimeric ferritin: Archaeoglobus fulgidus ferritin with a grafted surface loop of human H ferritin) (Archaeoglobus fulgidus); assay: negative staining electron microscopy; TEM, HumFt 0.02 mg/mL with 50 mM Mg2+ and/or G4 PAMAM; 2% uranyl acetate or 4% ammonium molybdate
[4] = molecular target: A. fulgidus humanized ferritin (chimeric ferritin: Archaeoglobus fulgidus ferritin with a grafted surface loop of human H ferritin) (Archaeoglobus fulgidus); assay: SEC; HP-SEC of the HumFt-G4 PAMAM/FITC nanoparticle; mobile phase 20 mM HEPES pH 7.4 with 50 mM MgCl2; UV 220 nm and fluorescence; dimers to 24-mer
[5] = molecular target: A. fulgidus humanized ferritin (chimeric ferritin: Archaeoglobus fulgidus ferritin with a grafted surface loop of human H ferritin) (Archaeoglobus fulgidus); assay: negative staining electron microscopy; TEM, HumFt 0.02 mg/mL in HEPES buffer without magnesium ions; 2% uranyl acetate or 4% ammonium molybdate
[6] = molecular target: A. fulgidus humanized ferritin (chimeric ferritin: Archaeoglobus fulgidus ferritin with a grafted surface loop of human H ferritin) (Archaeoglobus fulgidus); assay: SEC; HP-SEC, no MgCl2; open HumFt 5 mg/mL (10 uM 24-mer) added to G3, G4 or G5 PAMAM at HumFt:PAMAM 1:10, 1:20, 1:30; mobile phase 20 mM HEPES pH 7.4; UV 220 nm; dimers to 24-mer

For “A. fulgidus humanized ferritin (chimeric ferritin: Archaeoglobus fulgidus ferritin with a grafted surface loop of human H ferritin)”, which percent dimeric form [1] is on record?
Its percent dimeric form is 10 to 15%.

What about the percent 24-mer [2] of the same substance?
Its percent 24-mer is over 95%.

What about the stoichiometry N [3] of the same substance?
Its stoichiometry N is 24.

What about the percent dimeric form [4] of the same substance?
The percent dimeric form was under 2%.

And the stoichiometry N [4]?
Its stoichiometry N is 24.

And the stoichiometry N [5]?
The stoichiometry N was 2.

And the stoichiometry N [6]?
Its stoichiometry N is 24.
